The results in this text go back to doi:10.1101/2023.08.04.551977 (bioRxiv, 2023).

Read-outs that look alike come from different tables or passages of the source.

In data set [1] the target is Wild-type menin (human) (UniProt O00255). In words: MST.
Data set [2] has as its target His-sumo-AR MBR (aa. G473-T560). In words: BLI.
A further data set deals with menin Δ460-519 (human) (UniProt O00255). Nature of the data set: MST.
Data set [3] deals with menin Δ460-519/ 586-615 (human) (UniProt O00255). Nature of the data set: MST.
In another data set the target is menin-MLL complex (UniProt O00255). Nature of the data set: MST.
For data set [4], the target named is Wild-type menin (human) (UniProt O00255). Nature of the data set: MST. This is another data set of the same source.
Data set [5] concerns the target His-sumo-AR MBR (aa. G473-T560). Nature of the data set: BLI. The source holds these as a separate data set.
The target of the next data set is His-sumo-AR MBR A (UniProt P10275). Nature of the data set: BLI.
Another data set addresses His-sumo-AR MBR B (UniProt P10275). Nature of the data set: BLI.
For data set [6], the target named is Wild-type menin (human) (UniProt O00255). Nature of the data set: SEC.
Data set [7] shares this target. Nature of the data set: dynamic light scattering.
The data set “MST” deals with the molecule itself. In words: MST.
For another data set, the target named is AR MBR (aa. G473-T560). In words: NMR titration.
The data set “HPLC-SAXS” deals with the molecule itself. In words: HPLC-SAXS.
The next data set addresses T1, AR-v7 (UniProt P10275-3 1-644).
T1 sequence: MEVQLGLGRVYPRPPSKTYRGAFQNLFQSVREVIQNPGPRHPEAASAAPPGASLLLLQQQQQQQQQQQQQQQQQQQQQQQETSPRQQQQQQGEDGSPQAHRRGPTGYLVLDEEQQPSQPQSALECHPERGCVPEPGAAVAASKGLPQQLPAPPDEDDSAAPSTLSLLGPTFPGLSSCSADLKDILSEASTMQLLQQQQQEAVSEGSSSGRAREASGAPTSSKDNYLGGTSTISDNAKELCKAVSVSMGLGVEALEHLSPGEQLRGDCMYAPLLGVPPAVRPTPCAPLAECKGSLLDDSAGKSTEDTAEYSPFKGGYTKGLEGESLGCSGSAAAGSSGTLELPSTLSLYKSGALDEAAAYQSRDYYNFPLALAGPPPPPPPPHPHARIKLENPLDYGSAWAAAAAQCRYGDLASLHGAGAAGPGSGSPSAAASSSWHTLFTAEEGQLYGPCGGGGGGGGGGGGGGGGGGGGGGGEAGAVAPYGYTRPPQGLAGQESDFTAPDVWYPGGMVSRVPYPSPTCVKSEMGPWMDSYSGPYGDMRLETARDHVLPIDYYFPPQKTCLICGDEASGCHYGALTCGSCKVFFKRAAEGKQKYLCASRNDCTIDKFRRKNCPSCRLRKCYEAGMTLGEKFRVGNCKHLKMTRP
Nature of the data set: MST.

The data set “dynamic light scattering” concerns the molecule itself. In words: dynamic light scattering.

With “His-sumo-AR MBR A (from UniProt P10275 473-518) (domain or fragment)”, the dissociation constant Kd with Wild-type menin (human) [1] stood at 1000 µM.

The molecule “His-sumo-AR MBR B (from UniProt P10275 509-559) (domain or fragment)” gave a Kd with Wild-type menin (human) [1] of 24 µM. This Kd lies about 42-fold lower than the previous one.

“menin-MLL complex (from UniProt O00255;Q03164)” had a Kd in [2] of 10.5 µM.

Regarding “His-sumo-AR MBR (aa. G473-T560) (domain or fragment)”, the Kd in the data set with Wild-type menin (human) [1] amounted to 1.7 µM; with menin Δ460-519 (human), 6.3 µM; in [3], 2000 nM; with menin-MLL complex it was 10.8 µM; with Wild-type menin (human) [4], 9.8 µM.

B1: Wild-type menin (natural protein)
chain: MGLKAAQKTLFPLRSIDDVVRLFAAELGREEPDLVLLSLVLGFVEHFLAVNRVIPTNVPELTFQPSPAPDPPGGLTYFPVADLSIIAALYARFTAQIRGAVDLSLYPREGGVSSRELVKKVSDVIWNSLSRSYFKDRAHIQSLFSFITGTKLDSSGVAFAVVGACQALGLRDVHLALSEDHAWVVFGPNGEQTAEVTWHGKGNEDRRGQTVNAGVAERSWLYLKGSYMRCDRKMEVAFMVCAINPSIDLHTDSLELLQLQQKLLWLLYDLGHLERYPMALGNLADLEELEPTPGRPDPLTLYHKGIASAKTYYRDEHIYPYMYLAGYHCRNRNVREALQAWADTATVIQDYNYCREDEEIYKEFFEVANDVIPNLLKEAASLLEAGEERPGEQSQGTQSQGSALQDPECFAHLLRFYDGICKWEEGSPTPVLHVGWATFLVQSLGRFEGQVRQKVRIVSREAEAAEAEEPWGEEAREGRRRGPRRESKPEEPPPPKKPALDKGLGTGQGAVSGPPRKPPGTVAGTARGPEGGSTAQVPAPTASPPPEGPVLTFQSEKMKGMKELLVATKINSSAIKLQLTAQSQVQMKKQKVSTPSDYTLSFLKRQRKGL
modifications: RED-NHS 2nd generation dye label on the labelled partner in the MST experiments
B1: the dissociation constant (Kd) came to 10.5 µM in [5], 3 mM with His-sumo-AR MBR A, 47 µM with His-sumo-AR MBR B and 10.4 µM with Wild-type menin (human) [1]. For the same molecule, the stoichiometry N with Wild-type menin (human) [6] and with Wild-type menin (human) [7] was 2 each time.

B2: menin Δ460-519/ 586-615 (natural protein)
chain: MGLKAAQKTLFPLRSIDDVVRLFAAELGREEPDLVLLSLVLGFVEHFLAVNRVIPTNVPELTFQPSPAPDPPGGLTYFPVADLSIIAALYARFTAQIRGAVDLSLYPREGGVSSRELVKKVSDVIWNSLSRSYFKDRAHIQSLFSFITGTKLDSSGVAFAVVGACQALGLRDVHLALSEDHAWVVFGPNGEQTAEVTWHGKGNEDRRGQTVNAGVAERSWLYLKGSYMRCDRKMEVAFMVCAINPSIDLHTDSLELLQLQQKLLWLLYDLGHLERYPMALGNLADLEELEPTPGRPDPLTLYHKGIASAKTYYRDEHIYPYMYLAGYHCRNRNVREALQAWADTATVIQDYNYCREDEEIYKEFFEVANDVIPNLLKEAASLLEAGEERPGEQSQGTQSQGSALQDPECFAHLLRFYDGICKWEEGSPTPVLHVGWATFLVQSLGRFEGQVRQKVRIVSGTVAGTARGPEGGSTAQVPAPTASPPPEGPVLTFQSEKMKGMKELLVATKINSSAIKLQLTAQSQV
modifications: RED-NHS 2nd generation dye label on the labelled partner in the MST experiments
On to B2, for which, in the data set “MST”, binding was put at a Kd of 3200 ± 800 nM.

B3: menin Δ460-519 (natural protein)
chain: MGLKAAQKTLFPLRSIDDVVRLFAAELGREEPDLVLLSLVLGFVEHFLAVNRVIPTNVPELTFQPSPAPDPPGGLTYFPVADLSIIAALYARFTAQIRGAVDLSLYPREGGVSSRELVKKVSDVIWNSLSRSYFKDRAHIQSLFSFITGTKLDSSGVAFAVVGACQALGLRDVHLALSEDHAWVVFGPNGEQTAEVTWHGKGNEDRRGQTVNAGVAERSWLYLKGSYMRCDRKMEVAFMVCAINPSIDLHTDSLELLQLQQKLLWLLYDLGHLERYPMALGNLADLEELEPTPGRPDPLTLYHKGIASAKTYYRDEHIYPYMYLAGYHCRNRNVREALQAWADTATVIQDYNYCREDEEIYKEFFEVANDVIPNLLKEAASLLEAGEERPGEQSQGTQSQGSALQDPECFAHLLRFYDGICKWEEGSPTPVLHVGWATFLVQSLGRFEGQVRQKVRIVSGTVAGTARGPEGGSTAQVPAPTASPPPEGPVLTFQSEKMKGMKELLVATKINSSAIKLQLTAQSQVQMKKQKVSTPSDYTLSFLKRQRKGL
modifications: RED-NHS 2nd generation dye label on the labelled partner in the MST experiments
Consider B3, for which the Kd turned out to be 15.7 µM in the data set with AR MBR (aa. G473-T560), 1700 ± 1800 nM in the data set with AR-v7 and 1900 ± 900 nM in “MST”. Moreover, the “stoichiometry N” value in “HPLC-SAXS” was determined as 2.

B4: AR MBR-DBD-LBD (domain or fragment)
chain: GEAGAVAPYGYTRPPQGLAGQESDFTAPDVWYPGGMVSRVPYPSPTCVKSEMGPWMDSYSGPYGDMRLETARDHVLPIDYYFPPQKTCLICGDEASGCHYGALTCGSCKVFFKRAAEGKQKYLCASRNDCTIDKFRRKNCPSCRLRKCYEAGMTLGARKLKKLGNLKLQEEGEASSTTSPTEETTQKLTVSHIEGYECQPIFLNVLEAIEPGVVCAGHDNNQPDSFAALLSSLNELGERQLVHVVKWAKALPGFRNLHVDDQMAVIQYSWMGLMVFAMGWRSFTNVNSRMLYFAPDLVFNEYRMHKSRMYSQCVRMRHLSQEFGWLQITPQEFLCMKALLLFSIIPVDGLKNQKFFDELRMNYIKELDRIIACKRKNPTSCSRRFYQLTKLLDSVQPIARELHQFTFDLLIKSHMVSVDFPEMMAEIISVQVPKILSGKVKPIYFHTQ
Regarding B4, the “stoichiometry N” value in the data set “dynamic light scattering” was determined as 2.
